This note sets out measurements from article doi:10.1101/2020.10.02.311787 (bioRxiv, 2020).

The target of assay [1] is T1, Phosphatase of Regenerating Liver-3 (PRL-3), recombinant (Homo sapiens, UniProt O75365). Nature of the assay: BLI. In general terms: Biolayer interferometry detects binding as a change in optical thickness at a sensor tip.
In assay [2] the target is 3XFLAG-PRL-3 in HEK293T cells (Homo sapiens, UniProt O75365). The experiment in a line: pull-down.
The target in assay [3] is T1, Phosphatase of Regenerating Liver-3 …. The experiment in a line: ELISA.
For assay [4], the target named is GFP-PRL-3 in HCT116 cells (Homo sapiens, UniProt O75365). Nature of the assay: immunostaining of cells or tissue.
The target of assay [5] is GFP-PRL-2 in HCT116 cells (Homo sapiens, UniProt Q12974). Nature of the assay: immunostaining of cells or tissue.
The target of assay [6] is GFP-PRL-1 in HCT116 cells (Homo sapiens, UniProt Q93096). The experiment in a line: immunostaining of cells or tissue.
For assay [7], the target named is 3XFLAG-tagged PRL-3, recombinant (human, UniProt O75365). The experiment in a line: co-IP.
The target of assay [8] is T1, Phosphatase of Regenerating Liver-3 …. The experiment in a line: HDX-MS.
In assay [9] the target is 3XFLAG-PRL-3 in HCT116 cells (Homo sapiens, UniProt O75365). Nature of the assay: immunostaining of cells or tissue.
For assay [10], the target named is untagged (wild-type) PRL-3 in HCT116 cells (Homo sapiens, UniProt O75365). The experiment in a line: immunostaining of cells or tissue.

Numbering of substitutions follows the chain as printed.

Sequence of GFP-PRL-3 in HCT116 cells (O75365 whole entry): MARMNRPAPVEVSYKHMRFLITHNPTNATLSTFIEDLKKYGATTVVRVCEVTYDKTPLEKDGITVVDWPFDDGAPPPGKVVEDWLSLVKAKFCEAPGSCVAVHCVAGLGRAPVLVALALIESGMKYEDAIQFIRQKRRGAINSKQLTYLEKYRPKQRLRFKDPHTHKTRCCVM
Sequence of 3XFLAG-PRL-3 in HEK293T cells (O75365 whole entry): as above
T1 sequence (O75365 whole entry): as above
Sequence of GFP-PRL-1 in HCT116 cells (Q93096 whole entry): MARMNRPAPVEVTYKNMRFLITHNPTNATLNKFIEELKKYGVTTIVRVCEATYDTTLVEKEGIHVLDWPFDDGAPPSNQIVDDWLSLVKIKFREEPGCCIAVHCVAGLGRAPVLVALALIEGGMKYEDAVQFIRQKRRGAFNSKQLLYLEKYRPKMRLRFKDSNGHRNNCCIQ
Sequence of GFP-PRL-2 in HCT116 cells (Q12974 whole entry): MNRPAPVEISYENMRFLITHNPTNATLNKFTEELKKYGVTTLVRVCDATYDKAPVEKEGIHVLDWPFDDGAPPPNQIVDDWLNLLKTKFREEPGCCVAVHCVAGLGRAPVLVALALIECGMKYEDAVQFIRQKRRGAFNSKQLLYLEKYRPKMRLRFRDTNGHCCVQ
Sequence of 3XFLAG-tagged PRL-3, recombinant (O75365 whole entry): as the sequence (O75365 whole entry) above
Sequence of 3XFLAG-PRL-3 in HCT116 cells (O75365 whole entry): as above
Sequence of untagged (wild-type) PRL-3 in HCT116 cells (O75365 whole entry): as above

B1: anti-PRL-3 nanobody 19 (VHH)
VHH: QVQLQESGGGLVQAGGSLGLSCAASRSIFNFKVMGWYRQAPGKQRELVASITNSDNTYYADSVKGRFTISREDAKTTMYLEMNSLKPEDTAVYRCYGQNWGLRATTYWGQGTQVTVSS
B1: in assay [1], the Kd – broadly, the constant that tells how readily two partners part at equilibrium – was 98.4 nM.

B2: anti-PRL-3 nanobody 84 (VHH)
VHH: B1 VHH with A91T
Take B2: the binding result in [2], in assay [3] and in assay [4] was “binds” throughout.

B3: anti-PRL-3 nanobody 26 (VHH)
VHH: QVQLQESGGGLVQPGGSLKLSCVVTGLHYYTEGWFRQAPGKEREGVSCISSSDGRTDYIDSVKGRFTISEDNDNKTVYLQMNTLKPDDTGVYYCVAERGPRGSTWWETYDYWGQGTHVTVSS
On to B3, for which, in assay [1], the Kd amounted to 28.9 nM. For the same molecule, the binding result in assay [5] and in assay [6] was “no binding (tested: 1:100 of 1 mg/mL)” each time.

B4: anti-PRL-3 nanobody 4 (VHH)
VHH: QVQLQESGGGLVQTGGSLRLSCAASQSTYNFDVMGWYRLAPGKQREFLTSITNGGNIYYADSVKGRFTIARDDSKTTMYLEMNSLKPEDTAVYTCYGQTHKPRVTTSWGQGTQVTVSS
Turning to B4, the binding result in assay [2], in assay [3] and in [4] was “binds” in each case.

B5: anti-PRL-3 nanobody 16 (VHH)
VHH: B4 VHH with Y29F, I69T
Take B5: the binding result in [2], in assay [3] and in assay [4] was “binds” throughout.

B6: anti-PRL-3 nanobody 10 (VHH)
VHH: B4 VHH with Y29F, D32N, T49P, I51L, M78T
For B6, the binding result in [2] is given as “binds”; in assay [3], “binds”; in [5], “no binding (tested: 1:100 of 1 mg/mL)”; in assay [4], “binds”; in assay [6], “no binding (tested: 1:100 of 1 mg/mL)”.

B7: anti-PRL-3 nanobody 91 (VHH)
VHH: B4 VHH with Y29F
For the molecule B7, the binding result in assay [7] is reported as “binds”; in assay [8] it was “binds”; in [2] it was “binds”; in assay [5], “no binding (tested: 1:100 of 1 mg/mL)”; in assay [4], “binds”; in [9], “binds”. Further, the figures for the binding result in [10] and in assay [6] were “binds” and “no binding (tested: 1:100 of 1 mg/mL)”, respectively.
